Results reported in paper PMC7522650, “An Alternative Binding Mode of IGHV3-53 Antibodies to the SARS-CoV-2 Receptor Binding Domain” (Cell Reports, 2020).
Numbering of substitutions follows the chain as printed.

B1: COVA2-04 Fab (Fab, V domains shown)
VH: QVQLVETGGGLIQPGGSLRLSCAASGFTVSSNYMSWVRQAPGKGLEWVSVIYSGGSTFYADSVKGRFTISRDNSKNTLYLQMNSLRAEDTAVYYCARDLERAGGMDVWGQGTMVTVSS
VL: not shown
B2: COVA2-39 Fab (Fab, V domains shown)
VH: QVQLVETGGGLIQPGGSLRLSCAASGFTVSSNYMSWVRQAPGKGLEWVSVIYTGGTTYYADSVKGRFTISRDNSKNTLYLQMNSLRAEDTAVYYCARAHVDTAMVESGAFDIWGQGTRVTVSS
VL: QSALTQPASVSGSPGQSITISCTGTSSDVGSYNLVSWYQQHPGKAPKLMIYEVTKRPSGVSNRFSGSKSGNTASLTISGLQAEDEADYYCCSYAGSSTWVFGGGTKLTVL
B3: COVA2-39 with the 53TGGT56 motif reverted to the germline-encoded 53SGGS56 motif (Fab, V domains shown)
VH: B2 VH with T53S, T56S
VL: B2 VL

Target: SARS-CoV-2 spike (S) protein receptor-binding domain (RBD), residues 319-541 (SARS-CoV-2, Wuhan-Hu-1 (GenBank …, UniProt P0DTC2))
Assay: BLI
Conditions: both partners purified

Row | Binder | Kd [nM] | fold decrease in other [fold]
1 | B1 | 40 | –
2 | B2 | 21 | –
3 | B3 | – | ≥ 50
